Source: publication PMC12397995 (Blood, 2025)

T1: Factor VIIa (UniProt P08709 61-212; P08709 213-466, gamma-carboxyglutamate (γ35 printed; GLA domain))
T1 sequence (looked up) 1: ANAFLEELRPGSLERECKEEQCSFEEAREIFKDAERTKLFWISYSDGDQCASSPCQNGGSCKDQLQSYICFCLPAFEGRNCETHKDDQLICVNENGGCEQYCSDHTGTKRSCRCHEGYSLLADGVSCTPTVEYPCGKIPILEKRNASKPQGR
T1 sequence (looked up) 2: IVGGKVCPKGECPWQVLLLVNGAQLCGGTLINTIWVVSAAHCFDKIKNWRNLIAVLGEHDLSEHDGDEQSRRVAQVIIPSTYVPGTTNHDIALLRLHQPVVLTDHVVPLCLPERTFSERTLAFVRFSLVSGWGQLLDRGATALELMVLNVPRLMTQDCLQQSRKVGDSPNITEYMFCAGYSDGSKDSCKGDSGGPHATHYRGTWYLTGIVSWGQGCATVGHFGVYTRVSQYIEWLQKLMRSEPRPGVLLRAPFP


Tests used:
[1] = biological target: Recombinant, membrane-anchored tissue factor (TF residues 3–244) fused to E. coli maltose-binding protein (UniProt P13726); experiment: cryo-EM structure
Factor VIIa = biological target: T1, Factor VIIa; experiment: cryo-EM structure

Binder	binding result [1]	binding result (Factor VIIa)
Fab fragment of the non-inhibitory anti-TF antibody 10H10 (Fab, V domains shown) VH: QVHLQQSGAELMKPGASVKISCKASGYTFITYWIEWVKQRPGHGLEWIGDILPGSGSTNYNENFKGKATFTADSSSNTAYMQLSSLTSEDSAVYYCARSGYYGNSGFAYWGQGTLVTVSA VL: DIVMTQSPSSLTVTAGEKVTMSCKSSQSLLSSGNQKNYLTWYQQIPGQPPKLLIYWASTRESGVPDRFTGSGSGTDFTLTINSVQAEDLAVYYCQNDYTYPLTFGAGTKLELK	binds	–
Recombinant, membrane-anchored tissue factor (TF residues 3–244) fused to E. coli maltose-binding protein (receptor, UniProt P13726 35-276, looked up) TTNTVAAYNLTWKSTNFKTILEWEPKPVNQVYTVQISTKSGDWKSKCFYTTDTECDLTDEIVKDVKQTYLARVFSYPAGNVESTGSAGEPLYENSPEFTPYLETNLGQPTIQSFEQVGTKVNVTVEDERTLVRRNNTFLSLRDVFGKDLIYTLYYWKSSSSGKKTAKTNTNEFLIDVDKGENYCFSVQAVIPSRTVNRKSTDSPVECMGQEKGEFREIFYIIGAVVFVVIILVIILAISLHK	–	binds
